The source of these data is patent US10413607B2, “Antibody specifically binding to ErbB3 and use thereof” (ISU ABXIS CO., LTD., priority 2015, dated 2019).

The test addresses T1, recombinant human ErbB3 protein (Homo sapiens, UniProt P21860).
T1 construct: purchased R&D systems
The test can be described thus: Binding affinity of anti-ErbB3 antibody to human ErbB3 protein (Octet QK384). Conditions: immobilized human ErbB3; for ka (association constant): binding phase about 900 seconds; for kd (dissociation constant): dissociation phase about 1200 seconds. Here is the method: In particular, the binding affinities of the anti-ErbB3 antibodies to the recombinant human ErbB3 protein (R&D systems) and the antigen-antibody interactive dynamics were measured using an Octet® QK384 system (Pall Life Sciences). After activation of carboxyl groups in 20 mM of 1-ethyl-3-(3-dimethylaminopropyl)carbodiimide hydrochloride (EDC) and 40 mM of N-hydroxysulfosuccinimide (sulfo-NHS) solution on an AR2G sensor (ForteBio), 10 μg/mL of human ErbB3 protein solution diluted with 10 mM of sodium acetate (pH 4.0) (ForteBio) was added to immobilize human ErbB3 protein onto the AR2G sensor. The AR2G sensor to which the human ErbB3 protein was immobilized was treated with 1 M of ethanolamine (ForteBio) to inactivate the remaining unreacted carboxyl groups.

B1: 442S9: modified anti-ErbB3 antibody from lead antibody 442P (CDR mutagenesis) (antibody, V domains shown)
VH: EVQLLESGGGLVQPGGSLRLSCAASGFTFSDYDMSWVRQAPGKGLEWVSSIYPDSGSTYYADSVQGRFTISRDNSKNTLYLQMNSLRAEDTAVYYCAKDRHMWPEGPFDYWGQGTLVTVSS
VL: QSVLTQPPSASGTPGQRVTISCSGSSSNIGSNSGSWYQQLPGTAPKLLIYADNHRPSGVPDRFSGSKSGTSASLAISGLRSEDEADYYCAAWDSSLSGYVFGGGTKLTVLG
modifications: Heavy chain variable region of antibody 442S9; Light chain variable region of antibody 442S9
For the molecule B1, the “ka (association constant)” value stood at 821000 M⁻¹ s⁻¹ and the “kd (dissociation constant)” value was 5.87e-05 s⁻¹.

B2: 442M8: modified anti-ErbB3 antibody from lead antibody 442P (CDR mutagenesis) (antibody, V domains shown)
VH: EVQLLESGGGLVQPGGSLRLSCAASGFTFSDYDMSWVRQAPGKGLEWVSSIYPDSGSTYYADSVQGRFTISRDNSKNTLYLQMNSLRAEDTAVYYCAKDLHMGPEGPFDYWGQGTLVTVSS
VL: QSVLTQPPSASGTPGQRVTISCSGSSSNIGSNSVSWYQQLPGTAPKLLIYSDNHRPSGVPDRFSGSKSGTSASLAISGLRSEDEADYYCHAWDSSLYVDVFGGGTKLTVLG
modifications: Heavy chain variable region of antibody 442M8; Light chain variable region of antibody 442M8
Consider B2, for which the “ka (association constant)” value is 870000 M⁻¹ s⁻¹ and the “kd (dissociation constant)” value came out at 2.23e-06 s⁻¹.

B3: 442M11: modified anti-ErbB3 antibody from lead antibody 442P (CDR mutagenesis) (antibody, V domains shown)
VH: EVQLLESGGGLVQPGGSLRLSCAASGFTFSDYDMSWVRQAPGKGLEWVSTIEPDYGSTLYADSVQGRFTISRDNSKNTLYLQMNSLRAEDTAVYYCAKDLHMGPEGPFDYWGQGTLVTVSS
VL: QSVLTQPPSASGTPGQRVTISCSGSSSNIGSNSVSWYQQLPGTAPKLLIYSDNHRPSGVPDRFSGSKSGTSASLAISGLRSEDEADYYCHAWDSSLSGDFFGGGTKLTVLG
modifications: Heavy chain variable region of antibody 442M11; Light chain variable region of antibody 442M11
With B3, the “ka (association constant)” value stood at 1.49e+06 M⁻¹ s⁻¹ and the “kd (dissociation constant)” value was determined as 8.09e-06 s⁻¹.

B4: 472S1: modified anti-ErbB3 antibody from lead antibody 472P (CDR mutagenesis) (antibody, V domains shown)
VH: EVQLLESGGGLVQPGGSLRLSCAASGFTFSWYDMTWVRQAPGKGLEWVSGISYDGGNTYYADSVKGRFTISRDNSKNTLYLQMNSLRAEDTAVYYCARDPSWCLQDLCYYADGMDVWGQGTLVTVSS
VL: QSVLTQPPSASGTPGQRVTISCSGSSSNIGSNSVSWYQQLPGTAPKLLIYADSNRPSGVPDRFSGSKSGTSASLAISGLRSEDEADYYCGSWDYSLSGYVFGGGTKLTVLG
modifications: Heavy chain variable region of antibody 472S1; Light chain variable region of antibody 472S1
As to B4, the “ka (association constant)” value stood at 649000 M⁻¹ s⁻¹ and the “kd (dissociation constant)” value was found to be 3.33e-07 s⁻¹.

B5: 442M4: modified anti-ErbB3 antibody from lead antibody 442P (CDR mutagenesis) (antibody, V domains shown)
VH: EVQLLESGGGLVQPGGSLRLSCAASGFTFSDYDMSWVRQAPGKGLEWVSTIDLDSGSIYYADSVQGRFTISRDNSKNTLYLQMNSLRAEDTAVYYCAKDLHMGPEGPFDYWGQGTLVTVSS
VL: QSVLTQPPSASGTPGQRVTISCSGSSSNIGSNSVSWYQQLPGTAPKLLIYSDNHRPSGVPDRFSGSKSGTSASLAISGLRSEDEADYYCVGWDSSLYGHVFGGGTKLTVLG
modifications: Heavy chain variable region of antibody 442M4; Light chain variable region of antibody 442M4
Take B5: the “ka (association constant)” value was found to be 573000 M⁻¹ s⁻¹ and the “kd (dissociation constant)” value is less than 1e-07 s⁻¹.

B6: 442M5: modified anti-ErbB3 antibody from lead antibody 442P (CDR mutagenesis) (antibody, V domains shown)
VH: EVQLLESGGGLVQPGGSLRLSCAASGFTFSDYDMSWVRQAPGKGLEWVSTIDLDSGSIYYADSVQGRFTISRDNSKNTLYLQMNSLRAEDTAVYYCAKDLHMGPEGPFDYWGQGTLVTVSS
VL: QSVLTQPPSASGTPGQRVTISCSGSSSNIGSNSVSWYQQLPGTAPKLLIYSDNHRPSGVPDRFSGSKSGTSASLAISGLRSEDEADYYCHAWDSSLWGDVFGGGTKLTVLG
modifications: Heavy chain variable region of antibody 442M5; Light chain variable region of antibody 442M5
Take B6: the “ka (association constant)” value amounted to 665000 M⁻¹ s⁻¹ and the “kd (dissociation constant)” value was less than 1e-07 s⁻¹.

B7: 442M3: modified anti-ErbB3 antibody from lead antibody 442P (CDR mutagenesis) (antibody, V domains shown)
VH: EVQLLESGGGLVQPGGSLRLSCAASGFTFSDYDMSWVRQAPGKGLEWVSSIYPDSGSTYYADSVQGRFTISRDNSKNTLYLQMNSLRAEDTAVYYCAKDRHMWPEGPFDYWGQGTLVTVSS
VL: QSVLTQPPSASGTPGQRVTISCSGSSSNIGSNSGSWYQQLPGTAPKLLIYADNWRPSGVPDRFSGSKSGTSASLAISGLRSEDEADYYCAAWDSSLSGYVFGGGTKLTVLG
modifications: Heavy chain variable region of antibody 442M3; Light chain variable region of antibody 442M3
On to B7, for which the “ka (association constant)” value stood at 771000 M⁻¹ s⁻¹ and the “kd (dissociation constant)” value came out at 2.62e-06 s⁻¹.

B8: 442M10: modified anti-ErbB3 antibody from lead antibody 442P (CDR mutagenesis) (antibody, V domains shown)
VH: EVQLLESGGGLVQPGGSLRLSCAASGFTFSDYDMSWVRQAPGKGLEWVSSIYPDSGSTDYADSVQGRFTISRDNSKNTLYLQMNSLRAEDTAVYYCAKDLHMWPEGPFDYWGQGTLVTVSS
VL: QSVLTQPPSASGTPGQRVTISCSGSSSNIGSNSVSWYQQLPGTAPKLLIYADNFRPSGVPDRFSGSKSGTSASLAISGLRSEDEADYYCAAWDSSLSGYVFGGGTKLTVLG
modifications: Heavy chain variable region of antibody 442M10; Light chain variable region of antibody 442M10
In the case of B8, the “ka (association constant)” value worked out at 471000 M⁻¹ s⁻¹ and the “kd (dissociation constant)” value is less than 1e-07 s⁻¹.

B9: 442M6: modified anti-ErbB3 antibody from lead antibody 442P (CDR mutagenesis) (antibody, V domains shown)
VH: EVQLLESGGGLVQPGGSLRLSCAASGFTFSDYDMSWVRQAPGKGLEWVSSIEPDSGSTDYADSVQGRFTISRDNSKNTLYLQMNSLRAEDTAVYYCAKDRHMWPEGPFDYWGQGTLVTVSS
VL: QSVLTQPPSASGTPGQRVTISCSGSSSNIGSNSGSWYQQLPGTAPKLLIYADNWRPSGVPDRFSGSKSGTSASLAISGLRSEDEADYYCAAWDSSLSGYVFGGGTKLTVLG
modifications: Heavy chain variable region of antibody 442M6; Light chain variable region of antibody 442M6
For the molecule B9, the “ka (association constant)” value is 969000 M⁻¹ s⁻¹ and the “kd (dissociation constant)” value turned out to be 1.95e-05 s⁻¹.
